Our source for the normalised SPOT signal, Boehringer light units (BLU); mean over the file's lines of this peptide values is PMC314469, “Protein Interaction Networks by Proteome Peptide Scanning” (PLoS Biology, 2004).

In one assay the target is T1, amphyphisin SH3 (AMPH_HUMAN), P49418.
T1 chain: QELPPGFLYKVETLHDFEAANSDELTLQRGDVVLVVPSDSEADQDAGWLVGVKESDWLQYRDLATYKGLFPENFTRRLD
In words: SPOT array.
As for EMPHLARPIKVESP [Q08050 469-482], the normalised SPOT signal, Boehringer light units (BLU); mean over the file's lines of this peptide is 145.
ELHVPIRPPRPSSP [O00485 108-122]: the normalised SPOT signal, Boehringer light units (BLU); mean over the file's lines of this peptide was determined as 12300.
Still for that read-out and setting: in the case of EKIPFERPFRRPNA [Q9NVW8 327-340] it was 948; in that of EGVPFRRPSTFGIP [P78347 776-789], 31.2; in that of EHRPLKRPRPRLGP [Q9UHV6 43-56], 22.
For the molecule EHPRLRRPMPWLLL [Q9Y5I4 12-25], the normalised SPOT signal, Boehringer light units (BLU); mean over the file's lines of this peptide came out at 85.8.
In turn, EKPKLRRPSDRSNG [Q9H9V7 590-603] had a normalised SPOT signal, Boehringer light units (BLU); mean over the file's lines of this peptide of 10.1.
ELTIIERPVRRSLK [Q9HCF0 45-58] showed a normalised SPOT signal, Boehringer light units (BLU); mean over the file's lines of this peptide of 700.
On the same count and under the same terms, in the case of EMTPPPKPPRLYLP [Q9UM03 505-519] it was 1820; in that of EKPILDRPTRISQP [Q9Y403 100-113], 57.1.
Same read-out and setting: in the case of EKGELGRPGRKGRP [Q9Y215 121-134] it was 103; in that of EIGFPGRPGRPGMN [P39060 984-997], 139.
The same measure, in the same setting: then EMEPPPKPPRSSSA [Q9H7I0 90-104], with 4690.
In the case of EPPPPQKPPPPNSK [Q03111 455-469], the normalised SPOT signal, Boehringer light units (BLU); mean over the file's lines of this peptide stood at 44.4.
On the same count and under the same terms, then ENESPLKPPGISMD [Q92610 35-49], with 50.4.
As for EKDHIRRPMNAFMI [Q9UEG5 39-52], the normalised SPOT signal, Boehringer light units (BLU); mean over the file's lines of this peptide stood at 30.2.
For EHRPPEKPPRPPRP [Q8TEL4 107-121], the normalised SPOT signal, Boehringer light units (BLU); mean over the file's lines of this peptide was found to be 9830.
Same read-out and setting: then EPPAPRRPASLAQR [Q9NP57 254-267], with 37.1; and ELYPISRPLKKTWE [Q15047 309-322], with -0; and EIPKPIKPPTYQVL [O60504 440-454], with 52.6.
In the case of ELEQLRRPPGTAER [Q9NZQ6 1526-1539], the normalised SPOT signal, Boehringer light units (BLU); mean over the file's lines of this peptide turned out to be 15.8.
Still for that read-out and setting: in the case of ELYLLFRPFKGYEG [Q93062 39-52] it was 129.
Still for that read-out and setting: in the case of AALLFLRPPRVRGH [Q9NPN2 39-52] it was 8020; in that of ELPRPRRPPLQWRY [Q9NSY0 103-117], 1080; in that of EIAKLKRPTALKKV [Q93073 574-587], 16.3.
Same read-out and setting: in the case of ELPRPRRPPPEDEE [P22460 83-97] it was 40; in that of AGPRLPRPPREGST [Q9H224 58-71], 2230; in that of EGTYPRRPGSSPKV [Q9UJX9 322-335], 54.8.
In turn, ELAHLVRPQKSRPY [P42858 194-207] showed a normalised SPOT signal, Boehringer light units (BLU); mean over the file's lines of this peptide of 166.
The same measure, in the same setting: then EHPEPKRPSVDSLV [Q9C0I2 974-987], with 50.2; and EPGLPVRPPGGGQS [O95954 457-471], with 374.
Still for that read-out and setting: then ENDNIERPVRRRHS [Q9NR92 11-24], with 88.7.
The molecule EPEEPKRPVPAERG [Q16584 619-632] displayed a normalised SPOT signal, Boehringer light units (BLU); mean over the file's lines of this peptide of 104.
Same read-out and setting: in the case of EHREPKRPEIIFLP [O43196 121-134] it was 31.2; in that of AGNLPSRPPPLSSP [Q96LQ5 87-101], 59.7.
The same measure, in the same setting: in the case of EIMSPRKPPLFLTK [BAC04837 210-224] it was 136; in that of EKGQPSRPTKSKDA [Q9NSC3 29-42], 82.2; in that of AGPGPARPPVPPRP [P52849 60-74], 5580.

In a further assay the target is endophilin SH3 (SH3G2_HUMAN), Q99962. Briefly: SPOT array.
As for EMPHLARPIKVESP [Q08050 469-482], the normalised SPOT signal, Boehringer light units (BLU); mean over the file's lines of this peptide amounted to 158.
ELHVPIRPPRPSSP [O00485 108-122] returned a normalised SPOT signal, Boehringer light units (BLU); mean over the file's lines of this peptide of 3980.
Same read-out and setting: then EKIPFERPFRRPNA [Q9NVW8 327-340], with 123; and EGVPFRRPSTFGIP [P78347 776-789], with 112.
With EHRPLKRPRPRLGP [Q9UHV6 43-56], the normalised SPOT signal, Boehringer light units (BLU); mean over the file's lines of this peptide was 82.
EHPRLRRPMPWLLL [Q9Y5I4 12-25]: the normalised SPOT signal, Boehringer light units (BLU); mean over the file's lines of this peptide is 783.
Consider EKPKLRRPSDRSNG [Q9H9V7 590-603], for which the normalised SPOT signal, Boehringer light units (BLU); mean over the file's lines of this peptide is 80.5.
On the same count and under the same terms, then ELTIIERPVRRSLK [Q9HCF0 45-58], with 61.6; and EMTPPPKPPRLYLP [Q9UM03 505-519], with 601; and EKPILDRPTRISQP [Q9Y403 100-113], with 0.6.
Same read-out and setting: then EKGELGRPGRKGRP [Q9Y215 121-134], with 164; and EIGFPGRPGRPGMN [P39060 984-997], with 108; and EMEPPPKPPRSSSA [Q9H7I0 90-104], with 298.
The same measure, in the same setting: then EPPPPQKPPPPNSK [Q03111 455-469], with 2240; and ENESPLKPPGISMD [Q92610 35-49], with 22.2; and EKDHIRRPMNAFMI [Q9UEG5 39-52], with 67.
EHRPPEKPPRPPRP [Q8TEL4 107-121]: the normalised SPOT signal, Boehringer light units (BLU); mean over the file's lines of this peptide amounted to 9880.
The same measure, in the same setting: in the case of EPPAPRRPASLAQR [Q9NP57 254-267] it was 831; in that of ELYPISRPLKKTWE [Q15047 309-322], -0.
Still for that read-out and setting: then EIPKPIKPPTYQVL [O60504 440-454], with 62.9; and ELEQLRRPPGTAER [Q9NZQ6 1526-1539], with 126.
On the same count and under the same terms, in the case of ELYLLFRPFKGYEG [Q93062 39-52] it was 178; in that of AALLFLRPPRVRGH [Q9NPN2 39-52], 82.4; in that of ELPRPRRPPLQWRY [Q9NSY0 103-117], 5930.
In the case of EIAKLKRPTALKKV [Q93073 574-587], the normalised SPOT signal, Boehringer light units (BLU); mean over the file's lines of this peptide turned out to be 85.5.
Still for that read-out and setting: then ELPRPRRPPPEDEE [P22460 83-97], with 36.9.
AGPRLPRPPREGST [Q9H224 58-71]: the normalised SPOT signal, Boehringer light units (BLU); mean over the file's lines of this peptide turned out to be 1130.
Regarding EGTYPRRPGSSPKV [Q9UJX9 322-335], the normalised SPOT signal, Boehringer light units (BLU); mean over the file's lines of this peptide is 73.1.
On the same count and under the same terms, then ELAHLVRPQKSRPY [P42858 194-207], with 86.2; and EHPEPKRPSVDSLV [Q9C0I2 974-987], with 0.
Same read-out and setting: in the case of EPGLPVRPPGGGQS [O95954 457-471] it was 59.4.
Same read-out and setting: then ENDNIERPVRRRHS [Q9NR92 11-24], with 59.3; and EPEEPKRPVPAERG [Q16584 619-632], with 40.1.
In turn, EHREPKRPEIIFLP [O43196 121-134] came in with a normalised SPOT signal, Boehringer light units (BLU); mean over the file's lines of this peptide of 43.4.
On the same count and under the same terms, then AGNLPSRPPPLSSP [Q96LQ5 87-101], with 1080; and EIMSPRKPPLFLTK [BAC04837 210-224], with 1680.
EKGQPSRPTKSKDA [Q9NSC3 29-42]: the normalised SPOT signal, Boehringer light units (BLU); mean over the file's lines of this peptide came out at 143.
Same read-out and setting: then AGPGPARPPVPPRP [P52849 60-74], with 3370.
